Test results reported in article PMC5384220 (2017).

Target: T1, His-KDM4A_(1–359)-Bio (human, UniProt O75164 1-359, biotin on the AviTag (>95% biotinylation))
T1 chain: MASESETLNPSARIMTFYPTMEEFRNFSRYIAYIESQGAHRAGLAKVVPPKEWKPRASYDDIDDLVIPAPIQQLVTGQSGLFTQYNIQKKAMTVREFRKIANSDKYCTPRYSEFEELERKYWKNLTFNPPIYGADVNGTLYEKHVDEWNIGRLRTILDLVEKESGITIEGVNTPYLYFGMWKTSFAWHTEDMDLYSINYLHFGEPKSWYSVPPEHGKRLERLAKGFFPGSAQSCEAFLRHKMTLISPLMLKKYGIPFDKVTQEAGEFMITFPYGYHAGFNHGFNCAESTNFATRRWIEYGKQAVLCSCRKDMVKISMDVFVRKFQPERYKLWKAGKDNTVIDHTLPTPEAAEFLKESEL
Experiment: BLI

- Kd: 110 µM
B1: H3(1–15)K9me3 (peptide)
peptide: ARTKQTARKSTGGKA
modifications: trimethyl-lysine at 9
